Assay results from patent US20240059797A1 (GRITSTONE BIO, published 2024).

B1: 4-anti-CD3-G2(1H11) (bispecific antibody)
chain: not shown
heavy: QVQLVQSGAEVKKPGASVKVSCKASGYTFTNYYMHWVRQAPGQGLEWMGMINPSGGGTSYAQKFQGRVTMTRDTSTSTVYMELSSLRSEDTAVYYCARGNPWELRLDYWGQGTLVTVSSGGGGSGGGGSGGGGSGGGGSDIQMTQSPSSLSASVGDRVTITCQASQDISNYLNWYQQKPGKAPKLLIYAASSLQSGVPSRFSGSGSGTDFTLTISSLQPEDFATYYCQQYYSYPFTFGPGTKVDIKGGGGSGGGGSEVQLVESGGGLVQPGGSLRLSCAASGFTFSTYAMNWVRQAPGKGLEWVGRIRSKYNNYATYYADSVKGRFTISRDDSKNTLYLQMNSLRAEDTAVYYCVRHGNFGDSYVSWFAYWGQGTLVTVSSASTKGPSVFPLAPSSKSTSGGTAALGCLVKDYFPEPVTVSWNSGALTSGVHTFPAVLQSSGLYSLSSVVTVPSSSLGTQTYICNVNHKPSNTKVDKRVEPKSCDKTHTCPPCPAPELLGGPSVFLFPPKPKDTLMISRTPEVTCVVVDVSHEDPEVKFNWYVDGVEVHNAKTKPREEQYQSTYRVVSVLTVLHQDWLNGKEYKCKVSNKALPAPIEKTISKAKGQPREPQVCTLPPSREEMTKNQVSLSCAVKGFYPSDIAVEWESNGQPENNYKTTPPVLDSDGSFFLVSKLTVDKSRWQQGNVFSCSVMHEALHNRFTQKSLSLSPGK
light: QAVVTQEPSLTVSPGGTVTLTCGSSTGAVTTSNYANWVQQKPGKSPRGLIGGTNKRAPGVPARFSGSLLGGKAALTISGAQPEDEADYYCALWYSNHWVFGGGTKLTVLRTVAAPSVFIFPPSDEQLKSGTASVVCLLNNFYPREAKVQWKVDNALQSGNSQESVTEQDSKDSTYSLSSTLTLSKADYEKHKVYACEVTHQGLSSPVTKSFNRGEC
notes: also called 4-G2(1H11)-αCD3
B2: 4-G5(1C12)_10AAL hOKT3a (bispecific antibody)
chain: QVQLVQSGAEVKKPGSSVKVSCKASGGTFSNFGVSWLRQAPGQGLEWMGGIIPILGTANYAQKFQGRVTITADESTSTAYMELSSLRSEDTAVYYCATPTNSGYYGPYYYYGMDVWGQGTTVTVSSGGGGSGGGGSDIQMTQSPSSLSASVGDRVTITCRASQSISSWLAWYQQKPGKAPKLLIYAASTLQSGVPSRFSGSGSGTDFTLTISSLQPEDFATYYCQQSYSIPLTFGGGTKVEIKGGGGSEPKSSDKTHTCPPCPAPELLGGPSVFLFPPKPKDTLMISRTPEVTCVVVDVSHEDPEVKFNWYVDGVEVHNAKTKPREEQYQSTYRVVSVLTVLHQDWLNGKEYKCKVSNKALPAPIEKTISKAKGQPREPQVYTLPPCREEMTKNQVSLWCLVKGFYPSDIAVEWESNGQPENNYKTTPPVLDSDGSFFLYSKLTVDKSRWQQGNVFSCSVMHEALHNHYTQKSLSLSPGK
heavy: QVQLVQSGAEVKKPGSSVKVSCKASGGTFSNFGVSWLRQAPGQGLEWMGGIIPILGTANYAQKFQGRVTITADESTSTAYMELSSLRSEDTAVYYCATPTNSGYYGPYYYYGMDVWGQGTTVTVSSGGGGSGGGGSDIQMTQSPSSLSASVGDRVTITCRASQSISSWLAWYQQKPGKAPKLLIYAASTLQSGVPSRFSGSGSGTDFTLTISSLQPEDFATYYCQQSYSIPLTFGGGTKVEIKGGGGSGGGGSQVQLVQSGAEVKKPGASVKVSCKASGYTFTRYTMHWVRQAPGQGLEWMGYINPSRGYTNYNQKFKDRVTLTTDKSSSTAYMELSSLRSEDTAVYYCARYYDDHYSLDYWGQGTLVTVSSASTKGPSVFPLAPSSKSTSGGTAALGCLVKDYFPEPVTVSWNSGALTSGVHTFPAVLQSSGLYSLSSVVTVPSSSLGTQTYICNVNHKPSNTKVDKRVEPKSCDKTHTCPPCPAPELLGGPSVFLFPPKPKDTLMISRTPEVTCVVVDVSHEDPEVKFNWYVDGVEVHNAKTKPREEQYQSTYRVVSVLTVLHQDWLNGKEYKCKVSNKALPAPIEKTISKAKGQPREPQVCTLPPSREEMTKNQVSLSCAVKGFYPSDIAVEWESNGQPENNYKTTPPVLDSDGSFFLVSKLTVDKSRWQQGNVFSCSVMHEALHNRFTQKSLSLSPGK
light: DIQMTQSPSSLSASVGDRVTITCSASSSVSYMNWYQQKPGKAPKRLIYDTSKLASGVPSRFSGSGSGTDFTLTISSLQPEDFATYYCQQWSSNPFTFGQGTKLEIKRTVAAPSVFIFPPSDEQLKSGTASVVCLLNNFYPREAKVQWKVDNALQSGNSQESVTEQDSKDSTYSLSSTLTLSKADYEKHKVYACEVTHQGLSSPVTKSFNRGEC
notes: format 4 diabody; also called G5(1C12)-hOKT3a Format 4 with shortened linkers

Columns and labels:
[1] = target: T1, HLA-A*01:01_… (G2) presented on cells (human); assay: flow cytometry, peptide-pulsed K562 cells
T1 construct: whole, on cells; K562 transduced with HLA-A*01:01 and pulsed with peptide, or A375 transduced with a 10x peptide cassette; also called G2 on K562 or A375 cells
Procedure: Cells were harvested, washed in PBS, and stained with eBioscience Fixable Viability Dye eFluor 450 for 15 minutes at room temperature. Following another wash in PBS+2% FBS, cells were resuspended with bispecifics at varying concentrations. Cells were incubated with bispecifics for 1 hour at 4° C. […] After incubating at 4° C. for 45 minutes and washing in PBS+2% FBS, cells were resuspended in PBS+2% FBS and analyzed by flow cytometry. […] All cell lines were stained and analyzed with bispecific binding using the same methods as the K562 cells.
Flow cytometric analysis was performed on the Attune NxT Flow Cytometer (ThermoFisher) using the Attune NxT Software. Data was analyzed using FlowJo.

[2] = target: T2, HLA-A*01:01_… (HLA-PEPTIDE target G2), recombinant biotinylated complex (human, enzymatically biotinylated (BirA)); assay: BLI
T2 construct: also called G2-pHLA

[3] = target: T3, HLA-B*35:01_… (HLA-PEPTIDE target G5), recombinant biotinylated complex (human, enzymatically biotinylated (BirA)); assay: BLI (ForteBio Octet HTX), biotinylated G5-pHLA captured on streptavidin SAX biosensor, bispecific in solution, 1:1 Fit
T3 construct: also called G5-pHLA
Source text: The biosensors were then dipped in assay buffer for a baseline. […] The biosensors were finally dipped into wells containing assay buffer to measure the dissociation rate for another 50 seconds. Referencing was completed by having a biosensor with no immobilized ligand dipped into analyte. Kinetic data was processed with Octet™ software using a 1:1 kinetic model with errors within 10%, X² below 3, and R² above 0.9.

[4] = target: T4, HLA-B*35:01_… (G5) presented on cells (human); assay: flow cytometry on LN229 cells engineered to express the G5 peptide (LN229-G5-9mer), PE anti-human IgG secondary
T4 construct: whole, on cells; also called G5 on K562 or LN229 cells
Procedure: Cells were harvested, washed in PBS, and stained with eBioscience Fixable Viability Dye eFluor 450 for 15 minutes at room temperature. Following another wash in PBS+2% FBS, cells were resuspended with bispecifics at varying concentrations. Cells were incubated with bispecifics for 1 hour at 4° C. After another wash, PE-conjugated goat anti-human IgG secondary antibody (Jackson ImmunoResearch) was added at 1:100. After incubating at 4° C. for 45 minutes and washing in PBS+2% FBS, cells were resuspended in PBS+2% FBS and analyzed by flow cytometry. Flow cytometric analysis was performed on the Attune NxT Flow Cytometer (ThermoFisher) using the Attune NxT Software. Data was analyzed using FlowJo.

[5] = target: T3, HLA-B*35:01_… (HLA-PEPTIDE target G5), …; assay: BLI (ForteBio Octet HTX), biotinylated G5-pHLA captured on streptavidin SAX biosensor, bispecific in solution, 1:2 Fit

Row | Binder | binding result [1] | binding result [2] | Kd [3] [nM] | koff [3] [s⁻¹] | kon [3] [M⁻¹ s⁻¹] | EC50 (read off the curve) [4] [nM] | Kd [5] [nM] | koff [5] [s⁻¹] | kon [5] [M⁻¹ s⁻¹]
1 | B1 | binds | binds |  |  |  |  |  |  | 
2 | B2 |  |  | 2.2 | 0.00279 | 1.27e+06 | ~1 | 16.1 | 0.00652 | 405000
